Measurements reported in patent US7247704.

Target: Human Lung Tryptase (human) (UniProt Q15661)
Assay: cell-based or functional assay

Chain of UniProt Q15661 (Q15661 31-275 limits assumed): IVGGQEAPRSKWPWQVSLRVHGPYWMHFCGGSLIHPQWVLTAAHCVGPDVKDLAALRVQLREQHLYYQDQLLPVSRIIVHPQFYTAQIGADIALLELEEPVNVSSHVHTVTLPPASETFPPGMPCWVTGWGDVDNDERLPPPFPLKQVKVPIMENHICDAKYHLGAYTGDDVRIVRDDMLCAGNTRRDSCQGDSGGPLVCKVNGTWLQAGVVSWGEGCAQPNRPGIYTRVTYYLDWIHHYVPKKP

% Inhibition of tryptase (cleavage of vasoactive intestinal peptide, RP-HPLC; example calculation): 36.7%
Substance: recombinant human Secretory Leukocyte Protease Inhibitor (rhSLPI) (from UniProt P03973 26-132)
